Article PMC3817407
Several values for one entry are separate records, joined by “and”; a condition that tells them apart may be missing. Equal values may be shown once.

Tests used:
ECF25_1643 = target: T1, ECF25_1643
T1 chain: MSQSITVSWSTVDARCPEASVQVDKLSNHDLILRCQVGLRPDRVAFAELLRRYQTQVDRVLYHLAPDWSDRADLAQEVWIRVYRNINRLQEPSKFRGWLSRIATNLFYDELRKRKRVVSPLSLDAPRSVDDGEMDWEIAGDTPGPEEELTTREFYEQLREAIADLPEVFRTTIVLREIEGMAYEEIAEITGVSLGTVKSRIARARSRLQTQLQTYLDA

ECF22_1147 = target: T2, ECF22_1147
T2 chain: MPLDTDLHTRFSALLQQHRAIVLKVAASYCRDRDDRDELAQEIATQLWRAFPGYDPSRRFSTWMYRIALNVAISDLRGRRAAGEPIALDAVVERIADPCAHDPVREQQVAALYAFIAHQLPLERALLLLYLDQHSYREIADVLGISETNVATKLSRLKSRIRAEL

ECF16_973 = target: T3, ECF16_973
T3 chain: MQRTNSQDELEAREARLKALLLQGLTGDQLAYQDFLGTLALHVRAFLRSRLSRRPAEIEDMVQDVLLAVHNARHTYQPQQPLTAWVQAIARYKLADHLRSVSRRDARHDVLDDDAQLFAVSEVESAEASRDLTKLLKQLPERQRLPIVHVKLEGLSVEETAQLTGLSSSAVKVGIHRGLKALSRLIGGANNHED

ECF15_436 = target: T4, ECF15_436
T4 chain: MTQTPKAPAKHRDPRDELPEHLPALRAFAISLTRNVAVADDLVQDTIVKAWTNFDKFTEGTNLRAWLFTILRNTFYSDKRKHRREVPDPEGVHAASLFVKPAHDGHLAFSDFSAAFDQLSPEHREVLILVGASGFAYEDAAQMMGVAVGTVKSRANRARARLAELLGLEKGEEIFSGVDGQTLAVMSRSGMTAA

ECF35_3582 = target: T5, ECF35_3582
T5 chain: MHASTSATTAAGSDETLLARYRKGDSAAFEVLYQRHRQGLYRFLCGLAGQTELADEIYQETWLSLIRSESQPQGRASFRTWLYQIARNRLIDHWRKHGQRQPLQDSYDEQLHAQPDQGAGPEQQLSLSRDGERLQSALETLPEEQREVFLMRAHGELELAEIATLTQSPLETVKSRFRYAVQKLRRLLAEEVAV

ECF28_1088 = target: T6, ECF28_1088
T6 chain: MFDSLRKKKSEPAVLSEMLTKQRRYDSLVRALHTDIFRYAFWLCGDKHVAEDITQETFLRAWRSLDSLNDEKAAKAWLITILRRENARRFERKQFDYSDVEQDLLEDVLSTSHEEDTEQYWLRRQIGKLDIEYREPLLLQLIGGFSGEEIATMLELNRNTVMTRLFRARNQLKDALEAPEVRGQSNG

ECF01_3473 = target: T7, ECF01_3473
T7 chain: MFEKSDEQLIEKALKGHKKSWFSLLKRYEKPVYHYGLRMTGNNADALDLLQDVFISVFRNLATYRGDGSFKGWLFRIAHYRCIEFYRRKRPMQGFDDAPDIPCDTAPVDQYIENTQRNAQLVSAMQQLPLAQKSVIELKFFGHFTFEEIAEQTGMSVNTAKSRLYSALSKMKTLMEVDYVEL

ECF04_1609 = target: T8, ECF04_1609
T8 chain: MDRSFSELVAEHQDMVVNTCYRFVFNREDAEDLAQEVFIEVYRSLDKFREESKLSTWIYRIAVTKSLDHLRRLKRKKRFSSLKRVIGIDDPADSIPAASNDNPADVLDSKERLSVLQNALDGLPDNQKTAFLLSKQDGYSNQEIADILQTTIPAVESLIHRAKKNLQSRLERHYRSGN

ECF11_3726 = target: T9, ECF11_3726
T9 chain: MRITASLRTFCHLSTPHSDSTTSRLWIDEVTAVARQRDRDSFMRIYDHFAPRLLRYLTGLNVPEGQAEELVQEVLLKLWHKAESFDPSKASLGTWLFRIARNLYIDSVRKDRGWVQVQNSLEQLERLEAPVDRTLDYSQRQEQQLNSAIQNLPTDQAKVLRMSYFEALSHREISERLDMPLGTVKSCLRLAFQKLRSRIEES

ECF17_1691 = target: T10, ECF17_1691
T10 chain: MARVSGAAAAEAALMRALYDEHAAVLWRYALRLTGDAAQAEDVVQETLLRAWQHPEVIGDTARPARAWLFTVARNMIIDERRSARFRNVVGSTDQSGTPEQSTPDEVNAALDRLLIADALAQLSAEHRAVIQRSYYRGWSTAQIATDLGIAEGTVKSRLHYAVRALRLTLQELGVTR

ECF16_3622 = target: T11, ECF16_3622
T11 chain: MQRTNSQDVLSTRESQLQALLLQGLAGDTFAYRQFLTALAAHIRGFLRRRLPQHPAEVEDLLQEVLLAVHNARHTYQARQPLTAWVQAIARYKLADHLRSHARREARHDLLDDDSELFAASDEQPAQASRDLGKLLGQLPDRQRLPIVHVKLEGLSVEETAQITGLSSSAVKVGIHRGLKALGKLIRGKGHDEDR

ECF34_1384 = target: T12, ECF34_1384
T12 chain: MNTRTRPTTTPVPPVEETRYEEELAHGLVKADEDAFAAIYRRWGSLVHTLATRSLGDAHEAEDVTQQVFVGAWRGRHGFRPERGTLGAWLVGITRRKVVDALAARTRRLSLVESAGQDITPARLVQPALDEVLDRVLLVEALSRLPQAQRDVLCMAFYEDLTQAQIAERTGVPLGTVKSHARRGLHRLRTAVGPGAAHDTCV

ECF12_807 = target: T13, ECF12_807
T13 chain: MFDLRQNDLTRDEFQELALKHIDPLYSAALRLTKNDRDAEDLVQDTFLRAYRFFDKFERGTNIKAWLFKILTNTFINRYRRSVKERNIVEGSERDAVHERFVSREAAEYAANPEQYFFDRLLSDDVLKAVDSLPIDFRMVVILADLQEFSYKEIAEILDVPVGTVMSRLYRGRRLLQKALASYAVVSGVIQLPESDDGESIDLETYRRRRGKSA

ECF15_524 = target: T14, ECF15_524
T14 chain: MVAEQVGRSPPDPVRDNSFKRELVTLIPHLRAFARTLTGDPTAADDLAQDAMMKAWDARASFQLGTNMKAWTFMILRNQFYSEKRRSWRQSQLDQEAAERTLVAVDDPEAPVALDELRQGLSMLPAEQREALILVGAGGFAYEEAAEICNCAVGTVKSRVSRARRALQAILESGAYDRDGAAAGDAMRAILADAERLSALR

Binder | fold repression (ECF25_1643) | fold repression (ECF22_1147) | fold repression (ECF16_973) | fold repression (ECF15_436) | fold repression (ECF35_3582) | fold repression (ECF28_1088) | fold repression (ECF01_3473) | fold repression (ECF04_1609) | fold repression (ECF11_3726) | fold repression (ECF17_1691) | fold repression (ECF16_3622) | fold repression (ECF34_1384) | fold repression (ECF27_1331) | fold repression (ECF12_807) | fold repression (ECF15_524)
AS14_1324 (protein) MSGSRPEPEGHLAEQHLGDRLSALVDGELGHDARERVLAHVATCPKCKAEVDAQRRLKNVFAEAAPPAPSESFLARLQGLPGGGDSDGGGSPFSGLPGGFGASAASGVFGPRRDERFEFDYVPAGSHTPVLPSATSGRGFRIHEVGRHESDRSASRGLRFAFAAAGAVSLAAIALGGVTLGTPDTTTEARGSGSGSNVTPLRTPGSAAATGSESQRRRTAGPLLGQGQRALGDLPVASTTASAPLLPGMPAPAGGDARQQAVRALTTPVTAGAAAMSPLIRPLEAVPPLSLSSWSAAPEVRPPGLLAAPDPAPSPYPAASPAASSSPLR | 3.84 and 3.33 | 8 | 4.45 | 6.5 | 4.28 | 3.46 | 8.34 | 4.65 | 11 | 4.81 | 6.46 | 2.76 | 8.27 | 8.92 | 5.32
AS04_1609 (protein) MNRTTEQRNAEVMKTIGLLDQMPRVEVDHLFRVRLMQRIEAMEVKKTSWSALPGGAFNPRLAFMALLLMLNIASALMLFMHGTPQATGSSGAIAESLTEDYGGPALSYYDDQTTIDR | 1.05 and 1.18 | 5.37 | 6.3 | 5.75 | 3.24 | 0.742 | 4.75 | 7.83 | 13.9 | 1.22 | 13.1 | 2.28 | 2.31 | 5.09 | 2.88
AS03_1198 (protein) MDKDFDFDNIGKRTPYRTPDNFFEETQRKILERTVDEQRKKRRLKRIIPTVIAVAAVLAGILFTPSLRYMNTDTPSASNILAVDKNNVTTDPVDKWIKELSDEELEELVSFSENDIFLN | 0.95 and 0.944 | 1.28 | 1.49 | 1.11 | 1.05 | 1.24 | 2.38 | 1.54 | 1.38 | 0.986 | 1.26 | 0.959 | 1.42 | 1.43 | 1.49
AS15_436 (protein) MAQSTEPKASPQEATAKGGDNTKGKSRKELQQQIDENLRRVYEEALVQEVPDRFAMLLDQLRQKGTGK | 1.19 and 1.27 | 6.02 | 3.01 | 46.1 | 1.1 | 2.98 | 4.77 | 5.41 | 7.87 | 4.15 | 6.45 | 2.2 | 4.82 | 5.3 | 33.1
AS11_987 (protein) MNKHPDNNLLEAYASGSIDAVSGLVVATHLETCSKCRAYVNQVEASQANTVSESPSEYSPEFDDMLNDIINAEPVNDNVVIQDTAFVNVAGKSFELPKTLVRFSDLVGSWRSYGGKVFSAQIDLGEDARVSLMYIGENVQIPQHTHRGLESTLVLHGGFSDEDGQYEEGDLMVRDASVKHSPFTQEGEDCLCLTVLTEPMIFTQGVARIFNLFGKGLYP | 2.1 and 1.71 | 2.64 | 2.76 | 3.32 | 1.71 | 1.97 | 4.16 | 2.66 | 6.99 | 2.68 | 5.11 | 2.37 | 3.06 | 4.25 | 3.35
AS03_1244 (protein) MKQFDPDVNIRPKEDSIRHYSVPDDYFASFTDKLMAQIPAVKEENTVVVPSVALWPKLRPLLYLAASFLLMIGMFKAFSLFGVGSDTGRTTSTSAGLVALDHGDTRWSEDTDYRDFLHDNCAETVSDEWVLTDFSE | 1.23 and 1.24 | 2.3 | 1.79 | 2.04 | 1.37 | 1.36 | 2.13 | 2.42 | 3.57 | 1.44 | 2.5 | 1.65 | 2.14 | 3.08 | 2.14
AS01_3473 (protein) MSNYDNAELLALWLEGKLTPKQRDEFEQRCIQDSQFAEQVDAAAMVKIGADDYSSSEVPQWNKAATFEPQQANNSGSWLSGVSLVTSALAIVLVLTGTQVTTSEGELRIRFGSGQSEQALVKLVDSKLDAFKQNQQDAFTLYAQTLQQQQSESASQLTNYLLSSSRKERREDFAELIKFVNQQRSDDQLFYARQLNQLQQDVYHDATGVALESIQQ | 1.37 and 1.13 | 3.4 | 1.49 | 1.94 | 1.49 | 1.59 | 13 | 1.67 | 5.65 | 1.97 | 2.47 | 1.64 | 3.09 | 3.57 | 1.61
